Measured values taken from IntAct's records for PubMed 22927393.

B1: Epsin-1 (Saccharomyces cerevisiae), Q12518 (parent)
chain: MSKQFVRSAKNLVKGYSSTQVLVRNATSNDNHQVSKDSLIELAEKSYDSADFFEIMDMLDKRLNDKGKYWRHIAKALTVIDYLIRFGSENCVLWCRENLYIIKTLKEFRHEDDEGIDQGQIVRVKAKELTALLSDDERLNEERNMNIKGRNRKGRRRRGTGRSDENDDDLQRAISASRLTAEEDERRRKQDEDYETALQLSKEEEELKRLQDLQRMQQQQGQQQLQQPMYYDIFGNPITPEEYAQFQLQQQQQQQQQQLQQQPMYYDVFGNPITPEELAQFQQQQQLQEQQYLASMQQQQQAMSNNPFAKSEQSSSSPKRNQLVAASSPQQLQQQKQQEPLIQNRTGNQSMTDKYSKLNELLATGTGIDTFGNVGEARIPAQHTKTGTFINSQGTGYRQVSDDPNHNPFLNSQYTGLPSTSVVPTQTGYGFGNQSQQQSQNNGSNNRGYTLIDL
partner: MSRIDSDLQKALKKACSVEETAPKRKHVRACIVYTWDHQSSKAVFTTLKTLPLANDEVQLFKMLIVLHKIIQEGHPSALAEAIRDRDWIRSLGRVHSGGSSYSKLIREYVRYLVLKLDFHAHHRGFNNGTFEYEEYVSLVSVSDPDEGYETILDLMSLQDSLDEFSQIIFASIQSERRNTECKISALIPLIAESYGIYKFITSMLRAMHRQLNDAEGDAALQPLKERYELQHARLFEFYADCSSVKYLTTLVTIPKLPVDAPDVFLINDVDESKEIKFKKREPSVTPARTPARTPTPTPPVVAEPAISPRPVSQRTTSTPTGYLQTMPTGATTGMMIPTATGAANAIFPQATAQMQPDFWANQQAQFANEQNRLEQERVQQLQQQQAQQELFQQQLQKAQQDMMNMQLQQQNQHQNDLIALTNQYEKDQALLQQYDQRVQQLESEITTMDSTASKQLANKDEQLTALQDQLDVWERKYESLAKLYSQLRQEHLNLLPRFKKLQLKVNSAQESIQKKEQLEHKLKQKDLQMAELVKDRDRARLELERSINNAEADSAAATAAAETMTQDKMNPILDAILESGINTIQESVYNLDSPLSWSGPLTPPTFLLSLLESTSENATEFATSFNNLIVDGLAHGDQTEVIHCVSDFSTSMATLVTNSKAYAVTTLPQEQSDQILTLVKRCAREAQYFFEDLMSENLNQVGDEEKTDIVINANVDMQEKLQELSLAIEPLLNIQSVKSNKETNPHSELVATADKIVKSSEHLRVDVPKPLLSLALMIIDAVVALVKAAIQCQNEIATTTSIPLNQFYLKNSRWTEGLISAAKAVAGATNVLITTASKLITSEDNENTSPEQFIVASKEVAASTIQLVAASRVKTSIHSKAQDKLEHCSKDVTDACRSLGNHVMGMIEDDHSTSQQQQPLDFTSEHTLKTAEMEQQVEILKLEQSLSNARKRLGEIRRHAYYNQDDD

Variants of: B1
Details: with sla2_yeast SLA2, P33338

effect of a mutation on the interaction | Variant
disrupting interaction strength | MSKQFVRSAKNLVKGYSSTQVLVRNATSNDNHQVSKDSLIELAEKSYDSADFFEIMDMLDKRLNDKGKYWRHIAKALTVIDYLIRFGSENCVLWCRENLYIIKALKEFRHEDDEGIDQGQIVRVKAKELTALLSDDERLNEERNMNIKGRNRKGRRRRGTGRSDENDDDLQRAISASRLTAEEDERRRKQDEDYETALQLSKEEEELKRLQDLQRMQQQQGQQQLQQPMYYDIFGNPITPEEYAQFQLQQQQQQQQQQLQQQPMYYDVFGNPITPEELAQFQQQQQLQEQQYLASMQQQQQAMSNNPFAKSEQSSSSPKRNQLVAASSPQQLQQQKQQEPLIQNRTGNQSMTDKYSKLNELLATGTGIDTFGNVGEARIPAQHTKTGTFINSQGTGYRQVSDDPNHNPFLNSQYTGLPSTSVVPTQTGYGFGNQSQQQSQNNGSNNRGYTLIDL [T104A]
